Source: patent US7988958B2, “Enterococcus and Streptococcus strains and bacteriocins” (The United States of America as represented by the …, priority 2005, dated 2011)
“And” between values parts separate entries of the source, which are not always exact repeats. Identical values can stand only once. Like-named read-outs stand apart in the source and are kept apart here.

Key:
S. enteritidis 204 [1] = assay: SDS-PAGE gel overlaid with test strain; format: cell-based; conditions: for Inhibiting Activity measured by SDS-PAGE: CAP, active band; for Inhibiting Activity SDS-PAGE: purified bacteriocin
Protocol: (§1) CAPs and bacteriocins were electrophoresed in about 15% […] gel weight, about 1% SDS (9×12 cm) in Tri-glycine buffer. After electrophoresis at about 100 mA for approximately 4 hours, gels were fixed with a solution containing approximately 15% ethanol and approximately 1% acetic acid. The gels were then washed with distilled water for approximately 4 hours. To determine molecular weights of protein fractions, the gel was stained with a solution containing approximately 0.21% Coomassi Blue G-250, about 40% ethanol, and about 7% acetic acid. Washed gels were tested against three target bacteria, C. jejuni NCTC 11168, E. coli 0157:H7 904, and S. enteritidis 204 by the method of Bhunia et al. (Journal of Industrial Microbiology, Volume 2, 319-322, 1987; herein incorporated by reference). The gels were placed in Petri dishes, covered with 5% blood-semi-solid Campylobacter agar (about 0.75%) or semi-solid MPA, and seeded with cells of the test strains. Plates containing C. jejuni were incubated at about 42° C. for approximately 48 hours under microaerobic conditions, E. coli 0157:H7 and S. enteriditidis at about 37° C. for approximately 24 hours. Assessment was based on visualization of zones of the inhibited growth of the test strains in the presence of bacteriocins.

E. coli O157:H7 904 [2] = assay: SDS-PAGE gel overlaid with test strain; format: cell-based; conditions: for Inhibiting Activity measured by SDS-PAGE: CAP, active band, E. coli O157:H7 904; for Inhibiting Activity SDS-PAGE: purified bacteriocin, E. coli O157:H7
Protocol: as §1

Proteus mirabilis = assay: MIC by spot test; format: cell-based
E. coli O157:H7 G-3 = assay: MIC by spot test; format: cell-based
[3] = test system: Pseudomonas aeruginosa 25583; assay: MIC by spot test; format: cell-based
S. enteritidis 237 = assay: MIC by spot test; format: cell-based
C. jejuni NCTC 11168 [4] = assay: Thermostability and effect of pH on bacteriocin activity (spot test); format: physicochemical, Campylobacter jejuni; conditions: for Antimicrobial activity after treatment: heating to about 90° C.
E. coli C600 = assay: MIC by spot test; format: cell-based
C. jejuni NCTC 11168 [5] = assay: IEF gel tested for growth inhibition of test strain; format: cell-based, Campylobacter jejuni; conditions: for Inhibiting Activity measured by IEF: CAP, active band, C. jejuni NCTC 11168; for Inhibiting Activity IEF: purified bacteriocin, C. jejuni
Protocol: as §1
Specimens of bacteriocins were placed on IEF gels (pH approximately 4.4-10.0) (Novex, San Diego, Calif.). The gels were run at about 100V for about 1 hour, 200V for about 2 hour, and 500V for about 30 minutes in XCM II™ Mini-Cell (Novex). Gels were washed with distilled water for about 4 hours without fixation followed by staining with Coomassie Blue G-250 to determine isoelectric points (pI) of the bacteriocins and their ability to inhibit the growth of the test strains as presented in FIGS. 1 and 2 and in Table 2.

L. monocytogenes 9-72 = assay: MIC by spot test; format: cell-based
S. typhimurium 320 = assay: MIC by spot test; format: cell-based
C. jejuni L4 = assay: MIC by spot test; format: cell-based
C. jejuni = assay: Activity of bacteriocin preparations from culture with and without inducer strain (arbitrary units); format: cell-based, Campylobacter jejuni
Klebsiella pneumoniae = assay: MIC by spot test; format: cell-based
E. coli O157:H7 904 [6] = assay: Spot test; format: cell-based; conditions: for Inhibiting activity in Spot Test: crude antimicrobial preparation (CAP), E. coli O157:H7 904; for Inhibiting Activity, Spot Test: purified bacteriocin, E. coli O157:H7
Morganella morganii = assay: MIC by spot test; format: cell-based
E. coli O157:H7 OD-3 = assay: MIC by spot test; format: cell-based
[7] = Isoelectric focusing (pI); format: physicochemical; conditions: for pI of the band with antimicrobial activity: pure bacteriocin, gel overlaid with Campylobacter jejuni
Y. enterolitica 04 = assay: MIC by spot test; format: cell-based, Y. enterocolitica
C. jejuni NCTC 11168 [8] = assay: SDS-PAGE gel overlaid with test strain; format: cell-based, Campylobacter jejuni; conditions: for Inhibiting Activity measured by SDS-PAGE: CAP, active band, C. jejuni NCTC 11168; for Inhibiting Activity SDS-PAGE: purified bacteriocin, C. jejuni
Protocol: as §1

Sh. dysenteriae = assay: MIC by spot test; format: cell-based
Pseudomonas aeruginosa = assay: MIC of purified bacteriocins and antibiotic by Spot Test; format: cell-based; conditions: P. aeruginosa; 24 hours at 37° C., aerobic
Protocol: (§2) The minimal inhibiting concentrations (MICs) of bacteriocins 760 and 50-52 and Methicillin were determined by Spot Test. Various concentrations of purified bacteriocins (μg/ml) in a volume of 10 μl was added to cultures of Staphylococcus aureus, Staphylococcus epidermidis, Pseudomonas aeruginosa, and Helicobacter pylori. The cultures were incubated for about 24 hours at about 37° C. under aerobic conditions for all but Helicobacter pylori which was incubated under microaerobic conditions.

Staphylococcus aureus = assay: as above; format: cell-based; conditions: S. aureus; 24 hours at 37° C., aerobic
Protocol: as §2

[9] = test system: Staphylococcus epidermidis; assay: as above; format: cell-based; conditions: S. epidermidis; 24 hours at 37° C., aerobic
Protocol: as §2

Helicobacter pylori = assay: as above; format: cell-based; conditions: H. pylori; 24 hours at 37° C., microaerobic
Protocol: as §2

C. jejuni NCTC 11168 [10] = assay: Spot test; format: cell-based, Campylobacter jejuni; conditions: for Inhibiting activity in Spot Test: crude antimicrobial preparation (CAP), C. jejuni NCTC 11168; for Inhibiting Activity, Spot Test: purified bacteriocin, C. jejuni
S. enteritidis 204 [11] = assay: Spot test; format: cell-based; conditions: for Inhibiting activity in Spot Test: crude antimicrobial preparation (CAP); for Inhibiting Activity, Spot Test: purified bacteriocin
E. coli O157:H7 lab. 39 = assay: MIC by spot test; format: cell-based
S. gallinarum pullorum = assay: MIC by spot test; format: cell-based
[12] = test system: Staphylococcus epidermidis; assay: MIC by spot test; format: cell-based
[13] = cultivation with inducer strain
[14] = cultivation without inducer strain

Bacteriocin 50-52: bacteriocin produced by Enterococcus durans/faecium/hirae NRRL B-30746 (strain 50-52); amino acid sequence SEQ ID NO 1 (TTKNYGNGVCNSVNWCQCGNVWASCNLATGCAAWLCKLA; listed as Enterococcus faecium)
Inhibiting Activity measured by SDS-PAGE (S. enteritidis 204 [1]): M.W. 3.9 kDa
Inhibiting Activity SDS-PAGE (S. enteritidis 204 [1]): +Band 1
Inhibiting Activity measured by SDS-PAGE (E. coli O157:H7 904 [2]): M.W. 3.9 kDa
Inhibiting Activity SDS-PAGE (E. coli O157:H7 904 [2]): +Band 1
MICs (Proteus mirabilis): 1.6 µg/mL
MICs (E. coli O157:H7 G-3): 0.1 µg/mL
MICs [3]: 3.2 µg/mL
MICs (S. enteritidis 237): 0.1 µg/mL
Stability at different values of pH (C. jejuni NCTC 11168 [4]; about pH 10): became inactive
Antimicrobial activity after treatment (C. jejuni NCTC 11168 [4]): retained it
Stability at different values of pH (C. jejuni NCTC 11168 [4]; pH about 3.0 to about 9.0): stable
MICs (E. coli C600): 0.1 µg/mL
Inhibiting Activity measured by IEF (C. jejuni NCTC 11168 [5]): band 1
Inhibiting Activity IEF (C. jejuni NCTC 11168 [5]): +Band 1
MICs (L. monocytogenes 9-72): 0.2 µg/mL
MICs (S. typhimurium 320): 0.1 µg/mL
MICs (C. jejuni L4; C. jejuni L-4): 0.2 µg/mL
Activity AU/ml (C. jejuni; [13]): 12,800 AU/ml
Specific Activity AU/mg (C. jejuni; [13]): 320,000 AU/mg
Activity AU/ml (C. jejuni; [14]): 3,200 AU/ml
Specific Activity AU/mg (C. jejuni; [14]): 213,333 AU/mg
MICs (Klebsiella pneumoniae): 0.2 µg/mL
Inhibiting activity in Spot Test (E. coli O157:H7 904 [6]): 3,200 AU/ml
Inhibiting Activity, Spot Test (E. coli O157:H7 904 [6]): 6,400 AU/ml
MICs (Morganella morganii): 3.2 µg/mL
MICs (E. coli O157:H7 OD-3): 0.1 µg/mL
IEF (pI) [7, 13]: 8.4
IEF (pI) [7, 14]: 8.4
IEF (pI) ([7]; isolated by Method A): 8.4
IEF (pI) ([7]; isolated by Method B): 8.4
pI of the band with antimicrobial activity [7]: about 8.4
MICs (Y. enterolitica 04): 0.1 µg/mL
Inhibiting Activity measured by SDS-PAGE (C. jejuni NCTC 11168 [8]): M.W. 3.9 kDa
Inhibiting Activity SDS-PAGE (C. jejuni NCTC 11168 [8]): +Band 1
MICs (Sh. dysenteriae): 0.4 µg/mL
MIC of purified Bacteriocins and Antibiotic (Pseudomonas aeruginosa): 0.8 µg/mL
MIC of purified Bacteriocins and Antibiotic (Staphylococcus aureus): 0.1 µg/mL
MIC of purified Bacteriocins and Antibiotic [9]: 0.4 µg/mL
MIC of purified Bacteriocins and Antibiotic (Helicobacter pylori): 0.8 µg/mL
Inhibiting activity in Spot Test (C. jejuni NCTC 11168 [10]): 12,800 AU/ml
Inhibiting Activity, Spot Test (C. jejuni NCTC 11168 [10]): 12,800 AU/ml
Inhibiting activity in Spot Test (S. enteritidis 204 [11]): 12,800 AU/ml
Inhibiting Activity, Spot Test (S. enteritidis 204 [11]): 12,800 AU/ml
MICs (E. coli O157:H7 lab. 39): 0.1 µg/mL
MICs (S. gallinarum pullorum): 0.1 µg/mL
MICs ([12]; Staphylococcus epidermis): 3.2 µg/mL

B1: Bacteriocin 760: bacteriocin produced by Enterococcus durans/faecium/hirae NRRL B-30745 (strain 760); amino acid sequence SEQ ID NO 2 (protein, listed as Streptococcus cricetus)
chain: NRWYCNSAAGGVGGAAVCGLAGYVGEAKENIAGEVRKGWGMAGGFTHNKACKSFPGSGWASG
Inhibiting Activity measured by SDS-PAGE (S. enteritidis 204 [1]): M.W. 5.5 kDa
Inhibiting Activity SDS-PAGE (S. enteritidis 204 [1]): +Band 1
Inhibiting Activity measured by SDS-PAGE (E. coli O157:H7 904 [2]): M.W. 5.5 kDa
Inhibiting Activity SDS-PAGE (E. coli O157:H7 904 [2]): +Band 1
MIC (Proteus mirabilis): 3200 µg/mL
MIC (E. coli O157:H7 G-3): 1600 µg/mL
MIC [3]: 400 µg/mL
MIC (S. enteritidis 237): 200 µg/mL
Stability at different values of pH (C. jejuni NCTC 11168 [4]; about pH 10): became inactive
Antimicrobial activity after treatment (C. jejuni NCTC 11168 [4]): retained it
Stability at different values of pH (C. jejuni NCTC 11168 [4]; pH about 3.0 to about 9.0): stable
MIC (E. coli C600): 100 µg/mL
Inhibiting Activity measured by IEF (C. jejuni NCTC 11168 [5]): band 1
Inhibiting Activity IEF (C. jejuni NCTC 11168 [5]): +Band 1
MIC (L. monocytogenes 9-72): 100 µg/mL
MIC (S. typhimurium 320): 200 µg/mL
MIC (C. jejuni L4; C. jejuni L4): 100 µg/mL
Specific Activity AU/mg (C. jejuni): 160,000 AU/mg and 284,444 AU/mg
MIC (Klebsiella pneumoniae): 3200 µg/mL
Inhibiting activity in Spot Test (E. coli O157:H7 904 [6]): 12,800 AU/ml
Inhibiting Activity, Spot Test (E. coli O157:H7 904 [6]): 12,800 AU/ml
MIC (Morganella morganii): 3200 µg/mL
MIC (E. coli O157:H7 OD-3): 1600 µg/mL
IEF (pI) [7]: 9.5
IEF (pI) ([7]; isolated by Method A): 9.5
IEF (pI) ([7]; isolated by Method B): 9.5
pI of the band with antimicrobial activity [7]: about 9.5
MIC (Y. enterolitica 04): 100 µg/mL
Inhibiting Activity measured by SDS-PAGE (C. jejuni NCTC 11168 [8]): M.W. 5.5 kDa
Inhibiting Activity SDS-PAGE (C. jejuni NCTC 11168 [8]): +Band 1
MIC (Sh. dysenteriae): 100 µg/mL
MIC of purified Bacteriocins and Antibiotic (Pseudomonas aeruginosa): 0.4 µg/mL
MIC of purified Bacteriocins and Antibiotic (Staphylococcus aureus): 1.6 µg/mL
MIC of purified Bacteriocins and Antibiotic [9]: 1.6 µg/mL
MIC of purified Bacteriocins and Antibiotic (Helicobacter pylori): 0.2 µg/mL
Inhibiting activity in Spot Test (C. jejuni NCTC 11168 [10]): 51,200 AU/ml
Inhibiting Activity, Spot Test (C. jejuni NCTC 11168 [10]): 51,200 AU/ml
Inhibiting activity in Spot Test (S. enteritidis 204 [11]): 12,800 AU/ml
Inhibiting Activity, Spot Test (S. enteritidis 204 [11]): 12,800 AU/ml
MIC (E. coli O157:H7 lab. 39): 1600 µg/mL
MIC (S. gallinarum pullorum): 400 µg/mL
MIC ([12]; Staphylococcus epidermidis): 1600 µg/mL
